# Reference: patent US9028829B2, “Uniform field magnetization and targeting of therapeutic formulations” (The Children's Hospital of Philadelphia, priority 2004, dated 2015)
# B1: free catalase: bovine liver catalase, not encapsulated (protein, UniProt P00432 2-527, looked up)
# Catalase: ADNRDPASDQMKHWKEQRAAQKPDVLTTGGGNPVGDKLNSLTVGPRGPLLVQDVVFTDEMAHFDRERIPERVVHAKGAGAFGYFEVTHDITRYSKAKVFEHIGKRTPIAVRFSTVAGESGSADTVRDPRGFAVKFYTEDGNWDLVGNNTPIFFIRDALLFPSFIHSQKRNPQTHLKDPDMVWDFWSLRPESLHQVSFLFSDRGIPDGHRHMNGYGSHTFKLVNANGEAVYCKFHYKTDQGIKNLSVEDAARLAHEDPDYGLRDLFNAIATGNYPSWTLYIQVMTFSEAEIFPFNPFDLTKVWPHGDYPLIPVGKLVLNRNPVNYFAEVEQLAFDPSNMPPGIEPSPDKMLQGRLFAYPDTHRHRLGPNYLQIPVNCPYRARVANYQRDGPMCMMDNQGGAPNYYPNSFSAPEHQPSALEHRTHFSGDVQRFNSANDDNVTQVRTFYLKVLNEEQRKRLCENIAGHLKDAQLFIQKKAVKNFSDVHPEYGSRIQALLDKYNEEKPKNAVHTYVQHGSHLSAREKANL
# System: Pronase
# Assay: Protection of MNP-encapsulated catalase from proteolysis
# Assay type: in vitro ADME
# Conditions: by 30 mins
# Protocol: Protection and activity of MNP-encapsulated catalase. The capacity of MNP to protect the catalase cargo was measured using a proteolysis assay. Samples were incubated for 60 min at 37° C. with shaking in a 0.2 wt % buffered Pronase, a robust mixture of proteinases which completely digests proteins into individual amino acids. The amount of catalase retained by MNP post proteolysis was determined following MNP separation by centrifugation (20 min, 4° C. at […]) using the radioactivity assay described above. The enzymatic activity of MNP-bound catalase retained over time was measured in comparison with free catalase.
molecule,measurement,value
B1,catalase activity on exposure to proteolytic enzymes,total deactivation
